From publication PMC6880876

Biological target: end-binding protein 3 (EB3), full-length, recombinant (UniProt Q9UPY8)
Experiment: ELISA

Sequence of UniProt Q9UPY8 (Q9UPY8 whole entry): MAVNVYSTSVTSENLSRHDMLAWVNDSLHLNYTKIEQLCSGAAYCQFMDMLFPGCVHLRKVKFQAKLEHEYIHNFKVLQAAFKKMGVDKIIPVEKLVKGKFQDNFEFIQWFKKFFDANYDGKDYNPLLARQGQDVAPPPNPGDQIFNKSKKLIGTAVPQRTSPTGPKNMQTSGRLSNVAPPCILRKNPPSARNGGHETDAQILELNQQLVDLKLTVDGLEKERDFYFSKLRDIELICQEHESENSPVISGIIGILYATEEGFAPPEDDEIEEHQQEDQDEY

## full-length WT tau (0N4R) (from UniProt P10636-6 1-383) (natural protein)
  Kd: 0.022 µM
